# Substitutions are numbered along the chain they refer to.
# B1: A10.L45 (antibody, V domains shown)
# VH: EVQLVESGGGLVKSGGSLRLSCAASGFTFRSHWMSWVRQAPGKGLEWVAIISYDGSNKYSADSVKGRFTISRDNSKNTLYLQLNSLRAEDTAVYYCAKAGGGNVGFDIWGQGTMVTVSS
# VL: SYELTQPPSVSVSPGQTASITCSADELGTQYVSWYQQKPGQSPVLVIYQDATRPSGIPERFSGSNSGNTATLTISGTQAMDEADYYCQAWDRSGVVFGGGTKLTVL
# B2: A10.K42 (antibody, V domains shown)
# VH: B1 VH with K13Q, S14P, R30Q, I50M, S56T, N57I, S60Y
# VL: B1 VL with E26K, Q30K, T52K, A79T, Y86L, A89S, G94D
# B3: A10.K30 (antibody, V domains shown)
# VH: B1 VH with L11V, K13Q, S14P, R30G, S31N, I50D, Y53S, S56R, N57Y, S60Y
# VL: B1 VL with E26K, Q30K, T52K, A79T, Y86L, A89S, G94D
# B4: A10.L73 (antibody, V domains shown)
# VH: B1 VH
# VL: B1 VL with A24G, E26N, T29S, T52Q
# B5: E9.4 (antibody, V domains shown)
# VH: EVQLQESGPGLVKPSETLSLTCTVSGGSISSSSYYWGWIRQPPGKGLEWIGDIYYTGSTYYNPSLKSRVTISVDTSKNQFSLKLSSVTAADTAVYYCARYDVSLGGSSDHWGQGTLVTVSS
# VL: SYELTQPPSVSVSPGQTASITCSGQRLGDKYASWYQQKPGQSPVLVIYEDSKRPSGIPERFSGSNSGDTATLTISGTQPMDEADYYCQAWDRDTGVFGYGTKVTVL
# notes: also called DLL4-E9-4 hIgG1/L
# B6: E9.12B (antibody, V domains shown)
# VH: B5 VH with S33N, Y100E, D101A, L104F, S107G, S108A, H110S
# VL: SYELTQPPSVSVSPGQTASITCSGDGLGDKYVSWYQQKPGQSPVLVIYEDSTRPSGIPERFSGSNSGDTATLTISGTQPMDEADYYCQAWDSESGVFGSGTKVT
# B7: E9.1F (antibody, V domains shown)
# VH: B5 VH with S32G, Y54N, T56I, Y100E, D101A, L104F, S107G, S108A, H110S
# VL: B5 VL with Q25D, A32V, K52Q, P79A, R92M, D93E, T94A, Y99S
# notes: also called E9.IF
# B8: E9.10H (antibody, V domains shown)
# VH: B5 VH with S33G, S58N, S67N, Y100E, D101E, S103I, S107G, S108A, H110Q
# VL: B6 VL with D25E, G26S, T52K, P79A, S92G, S94T
# B9: E9.5E (antibody, V domains shown)
# VH: B5 VH with Y54N, T56I, Y100E, D101S, S103P, S107G, S108A, H110E
# VL: B6 VL with G26M, T52Q, S94T
# B10: E9.65 (antibody, V domains shown)
# VH: B5 VH with S30R, S31N, S33R, Y35H, S67G, Y100E, S103I, G105R, S107G, H110Y
# VL: B5 VL
# B11: E9.18 (antibody, V domains shown)
# VH: B5 VH with S33G, Y54N, T56A, Y100E, S103I, G105R, S107G, H110Y
# VL: B5 VL
# notes: also called DLL4-E9-18 hIgG1/L
# B12: E9.66 (antibody, V domains shown)
# VH: B5 VH with Y100E, D101G, S103P, S107G, S108A, H110K
# VL: B5 VL
# notes: also called DLL4-E9-66 hIgG1/L
# B13: E9.17 (antibody, V domains shown)
# VH: B5 VH with Y100E, D101E, V102A, S103I, S107G, H110Y
# VL: B5 VL
# notes: also called DLL4-E9-17 hIgG1/L
# B14: E9.13 (antibody, V domains shown)
# VH: B5 VH with Y100E, S103I, G105R, S107G, H110Y
# VL: B5 VL with Q25D, R26T, A32V, K52E, R92S, D93E, Y99S
# notes: also called DLL4-E9-13 hIgG1/L
# B15: E9.38 (antibody, V domains shown)
# VH: B5 VH with Y100E, S103I, G105R, S107G, H110Y
# VL: B5 VL with A32V, T94V, Y99S
# notes: also called DLL4-E9-38 hIgG1/L
# B16: E9.48 (antibody, V domains shown)
# VH: B5 VH with S33G, Y54N, T56R, Y100E, S103I, G105R, S107G, H110Y
# VL: B5 VL
# notes: also called DLL4-E9-48 hIgG1/L
# B17: E9.10E (antibody, V domains shown)
# VH: B5 VH with S30N, S32G, S33N, Y54S, Y100E, S103M, L104Y, S107G, S108G, H110S
# VL: B6 VL with D25E, T52E, P79A, S94A
# B18: E9.14 (antibody, V domains shown)
# VH: B5 VH with S31N, S33R, Y35H, P42S, A90E, Y100E, S103I, G105R, S107G, H110Y
# VL: B5 VL
# notes: also called DLL4-E9-14 hIgG1/L
# B19: E9.11 (antibody, V domains shown)
# VH: B5 VH with Y100E, D101A, S103P, S107G, H110Y
# VL: B5 VL
# notes: also called DLL4-E9-11 hIgG1/L
# B20: E9.22 (antibody, V domains shown)
# VH: B5 VH with S31N, S33R, Y35H, S67G, Y100E, S103I, G105R, S107G, H110Y
# VL: B5 VL
# notes: also called DLL4-E9-22 hIgG1/L
# B21: E9.71(M) (antibody, human IgG1, V domains shown)
# VH: B5 VH with Y100Q, D101A, V102L, S103A, L104M, S107G, H110K
# VL: SYELTQPPSVSVSPGQTASITCSGQRLGDKYASWYQQKPGQSPVLVIYEDSKRPSGIPERFSGSNSGDTATLTISGTQPMDEADYYCQAWDRDTGVFGGGTKLTVLG
# B22: E9.71(M)-3 (antibody, human IgG1, V domains shown)
# VH: B5 VH with Y100Q, D101A, V102L, S103A, L104M, S107G, H110K
# VL: YELTQPPSVSVSPGQTASITCSGQRLGDKYASWYQQKPGQSPVLVIYEDSKRPSGIPERFSGSNSGDTATLTISGTQPMDEADYYCQAWDRDTGVFGGGTKLTVLG
# Biological target: T1, human DLL4 extracellular domain (human, UniProt Q9NR61 27-529)
# T1 construct: extracellular domain; coated on plates in the sVEGFR1 assay; also called huDLL4 ECD; Human DLL4 ECD
# Test: Biacore SPR;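 note: surface plasmon resonance on a Biacore instrument, antibodies captured on immobilized anti-human Fc, purified recombinant DLL4 extracellular domain injected as analyte, binding followed over time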
# Protocol: (§1) Binding of DLL4 antibodies to a purified recombinant DLL4 extracellular domain is determined by surface plasmon resonance-based measurements with a Biacore® instrument (either a Biacore 2000, Biacore 3000, or Biacore T100, GE Healthcare, Piscataway, N.J. US) using running buffer HBS-EPB (10 mM HEPES [pH 7.4], 150 mM NaCl, 3 mM EDTA, 0.1 mg/ml BSA and 0.005% surfactant P20) at 25° C. For example, approximately 9000 RU of goat anti-human Fc specific polyclonal antibody (Thermo Fisher Scientific Inc., Rockford, Ill., US) diluted in 10 mM sodium acetate (pH 4.5) is directly immobilized across a CM5 research grade biosensor chip using a standard amine coupling kit according to manufacturer's instructions and procedures at 25 μg/ml. Unreacted moieties on the biosensor surface are blocked with ethanolamine. For kinetic analysis, rate equations derived from the 1:1 Langmuir binding model are fitted simultaneously to multiple antigen injections (using global fit analysis) with the use of Scrubber 2 (BioLogic Software). […] The equilibrium dissociation constant KD (M) of the reaction between antibodies and the target antigen is then calculated from the kinetic rate constants by the following formula: KD=Koff/Kₒₙ. Binding is recorded as a function of time and kinetic rate constants are calculated. In this assay, on-rates as fast as 10⁶ M⁻¹s⁻¹ and off-rates as slow as 10⁻⁶ s⁻¹ can be measured.
Kd [nM],koff [s⁻¹],kon [M⁻¹ s⁻¹],Binder
0.72,3.16e-05,44000,B1
4.06,0.000406,100000,B2
7.69,0.000274,35700,B3
0.19,9.5e-06,50700,B4
0.58,3.31e-05,56700,B5
0.02,3.1e-06,151000,B6
0.05,1.16e-05,218000,B7
0.57,5.9e-05,104000,B8
0.04,6e-06,150000,B9
14,0.000363,25900,B10
1.18,1.84e-05,15700,B11
0.078,2.5e-06,32600,B12
0.1,4.4e-06,43900,B13
1.33,4.97e-05,37400,B14
2.75,3.48e-05,12700,B15
6.92,7.59e-05,11000,B16
0.21,4.62e-05,218000,B17
9.14,0.000365,39900,B18
0.48,1.74e-05,36300,B19
8.46,0.000331,39100,B20

# Biological target: T2, mouse DLL4 extracellular domain (mouse, UniProt Q9JI71 27-532)
# T2 construct: extracellular domain; also called muDLL4 ECD; Mouse DLL4 ECD
# T2 sequence (Q9JI71 27-532): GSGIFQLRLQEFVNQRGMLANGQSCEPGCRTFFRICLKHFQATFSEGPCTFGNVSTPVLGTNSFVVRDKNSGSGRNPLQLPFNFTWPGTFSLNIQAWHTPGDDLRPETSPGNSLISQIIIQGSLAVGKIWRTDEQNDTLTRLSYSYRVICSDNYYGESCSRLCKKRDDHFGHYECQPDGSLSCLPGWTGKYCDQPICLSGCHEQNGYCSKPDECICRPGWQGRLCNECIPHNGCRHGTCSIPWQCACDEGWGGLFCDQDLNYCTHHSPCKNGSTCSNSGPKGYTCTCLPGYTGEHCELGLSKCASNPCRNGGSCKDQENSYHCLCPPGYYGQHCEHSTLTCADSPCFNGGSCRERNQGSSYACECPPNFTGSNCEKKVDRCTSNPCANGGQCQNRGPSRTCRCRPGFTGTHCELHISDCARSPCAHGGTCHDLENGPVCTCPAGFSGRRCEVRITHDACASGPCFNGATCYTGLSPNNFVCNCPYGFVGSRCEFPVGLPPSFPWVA
# Test: Biacore SPR;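 note: surface plasmon resonance on a Biacore instrument, antibodies captured on immobilized anti-human Fc, purified recombinant DLL4 extracellular domain injected as analyte, binding followed over time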
# Protocol: as §1
binding result,Kd [nM],koff [s⁻¹],kon [M⁻¹ s⁻¹],Binder
no binding,–,–,–,B1
no binding,–,–,–,B2
no binding,–,–,–,B3
no binding,–,–,–,B4
–,1.12,6.01e-05,53800,B5
–,0.18,1.47e-05,83500,B6
–,0.34,2.23e-05,65300,B8
–,0.02,2e-06,89000,B9
–,5.27,0.000136,25700,B10
–,0.73,1.68e-05,23200,B11
–,0.5,1.44e-05,28900,B12
–,0.38,1.41e-05,37000,B13
–,4.89,0.000212,43400,B14
–,9.27,0.000171,18400,B15
–,2.53,4.17e-05,16500,B16
–,0.62,9.41e-05,151000,B17
–,3.49,0.000136,38900,B18
–,0.5,1.39e-05,27700,B19
–,3.5,0.000133,37800,B20

# Biological target: T3, human DLL4 on the cell surface (human, UniProt Q9NR61 27-685)
# T3 construct: whole, on cells; also called HEK293-hDLL4; hDLL4-293G
# Test: FACS on DLL4 cells
row,EC50 [nM],Binder
1,1.63,B5
2,3.34,B6
3,2.65,B7
4,3.52,B8
5,2.7,B9
6,0.27,B21
7,2.02,B12
8,8,B13
9,1.66,B15
10,5.1,B17
11,4.46,B19
12,34.3,B20

# Biological target: T4, mouse DLL4 on the cell surface (mouse, UniProt Q9JI71 27-686)
# T4 construct: whole, on cells; also called HEK293-mDLL4; mDLL4-293G
# T4 sequence (Q9JI71 27-686): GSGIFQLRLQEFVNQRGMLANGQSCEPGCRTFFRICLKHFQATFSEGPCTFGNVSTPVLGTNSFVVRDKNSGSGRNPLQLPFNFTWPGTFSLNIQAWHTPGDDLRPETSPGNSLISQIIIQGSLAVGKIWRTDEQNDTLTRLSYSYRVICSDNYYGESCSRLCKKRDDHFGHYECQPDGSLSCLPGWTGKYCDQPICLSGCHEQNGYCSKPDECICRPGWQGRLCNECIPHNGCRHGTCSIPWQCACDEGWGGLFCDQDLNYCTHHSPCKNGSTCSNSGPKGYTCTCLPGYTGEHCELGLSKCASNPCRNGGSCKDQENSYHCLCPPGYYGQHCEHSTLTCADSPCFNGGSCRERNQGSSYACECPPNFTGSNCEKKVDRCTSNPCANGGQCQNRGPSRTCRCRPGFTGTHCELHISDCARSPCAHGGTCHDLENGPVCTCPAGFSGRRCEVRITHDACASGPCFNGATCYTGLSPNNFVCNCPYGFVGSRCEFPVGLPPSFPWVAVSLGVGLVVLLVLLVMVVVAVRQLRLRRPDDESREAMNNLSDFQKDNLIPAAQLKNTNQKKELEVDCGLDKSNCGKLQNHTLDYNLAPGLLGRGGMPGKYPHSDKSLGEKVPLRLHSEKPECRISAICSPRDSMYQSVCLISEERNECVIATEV
# Test: FACS on DLL4 cells
row,EC50 [nM],Binder
1,0.63,B5
2,0.71,B6
3,0.37,B7
4,0.82,B8
5,0.89,B9
6,0.29,B21
7,0.7,B12
8,2.57,B13
9,0.13,B15
10,1.19,B17
11,1.45,B19
12,37.4,B20

# Biological target: T3, human DLL4 on the cell surface
# Test: cell-based or functional assay
row,"Inhibition of Notch activation via huDLL4 cells, coculture (IC50, nM) [nM]",Binder
1,0.65,B22
2,1,B13

# Biological target: T3, human DLL4 on the cell surface
# Test: competition FACS, competitor huNotch-1;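 note: stable cell lines displaying human or mouse DLL4 on their surface, Notch binding detected by flow cytometry via R-phycoerythrin streptavidin fluorescence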
# Protocol: (§2) Notch blocking assay: Briefly, stable cell lines overexpressing cell-surface DLL4 were harvested from tissue culture flasks and re-suspended in phosphate buffered saline (PBS) containing 1% bovine serum albumin and 1 mM CaCl₂ (FACS buffer). HEK293-hDLL4 or HEK293-mDLL4 cells were dispensed into 96-well plate (v-bottom) at 1.5×10⁵ cells/well in FACS buffer. […] After washing the cells two times with FACS buffer, 50 μL of R-phycoerythrin-conjugated streptavidin (1:150 dilution in FACS buffer) (Jackson ImmunoResearch, West Grove, Pa., US, catalog no. 016-110-084) were added. Following an incubation on ice (4° C., 60 minutes), cells were washed three times and resuspended in FACS buffer. Fluorescence was measured using a Becton Dickinson FACSCalibur-HTS (Becton Dickinson, San Jose. Calif.).
row,IC50 [nM],Binder
1,4.3,B5
2,4.44,B6
3,6.55,B7
4,5.65,B8
5,3.76,B9
6,2.12,B21
7,5.03,B12
8,19.8,B13
9,7.76,B15
10,9.12,B16
11,3.83,B17
12,14.8,B19
13,21.1,B20

# Biological target: T4, mouse DLL4 on the cell surface
# Test: competition FACS, competitor huNotch-1;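 note: stable cell lines displaying human or mouse DLL4 on their surface, Notch binding detected by flow cytometry via R-phycoerythrin streptavidin fluorescence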
# Protocol: as §2
row,IC50 [nM],Binder
1,0.3,B5
2,0.37,B6
3,0.65,B7
4,0.6,B8
5,0.34,B9
6,0.18,B21
7,0.99,B12
8,1.2,B15
9,1.3,B16
10,0.36,B17
11,2.06,B19
12,2.63,B20

# — patent publication US20200255508A1 (AbbVie / Abbott, published 2020)
